The source of these data is paper PMC8458281, “Computational modeling and experimental validation of the EPI-X4/CXCR4 complex allows rational design of small peptide antagonists” (Communications Biology, 2021).

No end group written: not given here.

Assay [1] has as its system CXCR4 D187E. Description: 12G5 antibody competition, 293T cells transfected with CXCR4 D187E. The following applies: IC50 on CXCR4 D187E relative to wt. It is filed as binding, human. As for the experimental part:
(§1) Fig. 4 The interactions of EPI-X4 and the EPI-X4 derivatives WSC02 and JM#21 with point-mutated CXCR4 were assessed by an antibody competition assay. Amino acid substitutions were introduced in the sequence of CXCR4 by site-directed mutagenesis, cloned into an IRES-eGFP expression vector, and transfected into 293 T cells. Afterward, cells were incubated with serially diluted EPI-X4 (a, b), WSC02 (c, d), or JM#21 (e, f) in presence of a constant concentration of CXCR4 specific antibody (clone 12G5). After 2 h, bound antibody was analyzed by flow cytometry. a, c, e) Representative dose-dependent replacement of 12G5 antibody by peptides. b, d, f) IC50 values were calculated by nonlinear regression. Shown are data derived from at least three individual experiments ± SEM. IC50 values were set to 1000 µM (EPI-X4 and WSC02) or 100 µM (JM#21) if the value exceeds the maximally used concentration. *p ≤ 0.05, ***p ≤ 0.001 (one-way ANOVA for comparison with wt). For IC50 values see Table 1. For all binding curves see also Fig. S8.
(§2) Mutated CXCR4 constructs were transfected into 293 T cells that have a very low endogenous expression level of wild-type CXCR4. Transfected cells were then analyzed for CXCR4 surface expression (Fig. S5a) and EPI-X4 binding using a flow cytometry-based antibody competition assay (Fig. S5b, c)[33]. […]

In assay [2] the test system is CXCR4 L41A. Kind of assay: 12G5 antibody competition, 293T cells transfected with CXCR4 L41A. Type of assay: binding, human. The following applies: IC50 on CXCR4 L41A relative to wt. As for the experimental part:
as §1, §2

Assay [3] relates to CXCR4 E277A. Kind of assay: 12G5 antibody competition, 293T cells transfected with CXCR4 E277A. The following applies: IC50 on CXCR4 E277A relative to wt. Type of assay: binding, human. How it is done: as §1, §2
The subject of assay [4] is CXCR4 D97E. Description: 12G5 antibody competition, 293T cells transfected with CXCR4 D97E. Type of assay: binding, human. The following applies: IC50 on CXCR4 D97E relative to wt. How it is done:
as §1, §2

Assay [5] relates to CXCR4 D97E + V112A. Kind of assay: 12G5 antibody competition, 293T cells transfected with CXCR4 D97E + V112A. It is filed as binding, human. The following applies: IC50 on CXCR4 D97E + V112A relative to wt. As for the experimental part: as §1, §2
The subject of assay [6] is CXCR4 D262A. Description: 12G5 antibody competition, 293T cells transfected with CXCR4 D262A. It is filed as binding, human. The following applies: IC50 on CXCR4 D262A relative to wt. How it is done:
as §1, §2

The subject of assay [7] is CXCR4 V112A. Kind of assay: 12G5 antibody competition, 293T cells transfected with CXCR4 V112A. As to conditions: IC50 on CXCR4 V112A relative to wt. It is filed as binding, human. How it is done:
as §1, §2

For assay [8], the system named is CXCR4 D97E + V112L. Description: 12G5 antibody competition, 293T cells transfected with CXCR4 D97E + V112L. As to conditions: IC50 on CXCR4 D97E + V112L relative to wt. It is filed as binding, human. As for the experimental part: as §1, §2
Assay [9] relates to CXCR4 D97S. Kind of assay: 12G5 antibody competition, 293T cells transfected with CXCR4 D97S. Type of assay: binding, human. The following applies: IC50 on CXCR4 D97S relative to wt. How it is done:
as §1, §2

The test system of a further assay is CXCR4 V112A + L41A. Description: 12G5 antibody competition, 293T cells transfected with CXCR4 V112A + L41A. Type of assay: binding, human. As to conditions: IC50 on CXCR4 V112A + L41A relative to wt. How it is done: as §1, §2
Assay [10] concerns CXCR4 D97E + V112A + L41A. Kind of assay: 12G5 antibody competition, 293T cells transfected with CXCR4 D97E + V112A + L41A. Type of assay: binding, human. The following applies: IC50 on CXCR4 D97E + V112A + L41A relative to wt. How it is done:
as §1, §2

Assay [11] addresses T1, C-X-C motif chemokine receptor 4 (CXCR4) on SupT1 cells (human (endogenous in SupT1), UniProt P61073 1-352).
T1 construct: CXCR4 as expressed on SupT1 cells; source: endogenous, on SupT1 cells
Kind of assay: flow cytometry on cells; 12G5 antibody competition on SupT1 cells; peptides in PBS with APC-conjugated 12G5 at a concentration close to its EC50, 4 °C, 2 h; MFI normalized to PBS control; IC50 by nonlinear regression. As to conditions: one partner purified. (In general: A flow cytometer gives signals particle by particle.)

In assay [12] the target is CXCR4 L41A (human, UniProt P61073-1 1-352, L41A). Description: FACS.
CXCR4 L41A (human, UniProt P61073-1 1-352, L41A), sequence (P61073 whole entry L41A): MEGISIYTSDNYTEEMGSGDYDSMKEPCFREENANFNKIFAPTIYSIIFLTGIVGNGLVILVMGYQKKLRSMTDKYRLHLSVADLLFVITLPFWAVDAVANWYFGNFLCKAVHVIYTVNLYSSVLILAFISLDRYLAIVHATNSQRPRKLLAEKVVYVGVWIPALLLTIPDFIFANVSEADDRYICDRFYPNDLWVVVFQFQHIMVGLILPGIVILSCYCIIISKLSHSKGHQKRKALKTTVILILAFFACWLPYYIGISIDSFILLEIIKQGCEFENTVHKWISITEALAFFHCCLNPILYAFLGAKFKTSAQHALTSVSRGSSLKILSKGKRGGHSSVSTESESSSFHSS
The target of assay [13] is CXCR4 D97E + V112A + L41A (human, UniProt P61073-1 1-352, L41A | D97E | V112A). Kind of assay: FACS.
In assay [14] the target is CXCR4 D262A (human, UniProt P61073-1 1-352, D262A). Kind of assay: FACS.
Assay [15] concerns the target T2, CXCR4 wt (transfected 293T cells) (human, UniProt P61073-1 1-352).
T2 chain: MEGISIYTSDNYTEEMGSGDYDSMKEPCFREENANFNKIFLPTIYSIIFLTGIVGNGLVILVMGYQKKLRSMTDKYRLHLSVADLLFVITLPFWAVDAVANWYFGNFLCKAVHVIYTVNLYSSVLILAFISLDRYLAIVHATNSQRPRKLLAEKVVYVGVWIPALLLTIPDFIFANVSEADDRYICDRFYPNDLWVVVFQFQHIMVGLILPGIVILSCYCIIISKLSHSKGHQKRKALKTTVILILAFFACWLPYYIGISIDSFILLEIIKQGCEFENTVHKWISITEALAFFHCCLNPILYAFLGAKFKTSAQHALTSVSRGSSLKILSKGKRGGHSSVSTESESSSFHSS
Description: FACS.

Assay [16] has as its target CXCR4 D187E (human, UniProt P61073-1 1-352, D187E). Kind of assay: FACS.
Another assay concerns the target CXCR4 E288D (human, UniProt P61073-1 1-352, E288 to Asp). Kind of assay: FACS.
Another assay deals with CXCR4 E288A (human, UniProt P61073-1 1-352, E288 to Ala). Kind of assay: FACS.
CXCR4 E288A, sequence (P61073 whole entry E288A): as the sequence (P61073 whole entry L41A) above, with A41L, E288A counted along it
Assay [17] has as its target CXCR4 D97S (human, UniProt P61073-1 1-352, D97S). Description: FACS.
Assay [18] deals with CXCR4 V112A (human, UniProt P61073-1 1-352, V112A). Description: FACS.
The target in another assay is CXCR4 V112L (human, UniProt P61073-1 1-352, V112L). Description: FACS.
CXCR4 V112L, sequence (P61073 whole entry V112L): as the sequence (P61073 whole entry L41A) above, with A41L, V112L counted along it
In assay [19] the target is CXCR4 D97E + V112L (human, UniProt P61073-1 1-352, D97E | V112L). Description: FACS.
CXCR4 D97E + V112L (human, UniProt P61073-1 1-352, D97E | V112L), sequence (P61073 whole entry D97E/V112L): as the sequence (P61073 whole entry L41A) above, with A41L, D97E, V112L counted along it
Assay [20] addresses CXCR4 D97E + V112A (human, UniProt P61073-1 1-352, D97E | V112A). Kind of assay: FACS.
In the next assay the target is CXCR4 D97T (human, UniProt P61073-1 1-352, D97T). Description: FACS.
Assay [21] has as its target CXCR4 D97E (human, UniProt P61073-1 1-352, D97E). Description: FACS.
A further assay deals with CXCR4 D97Q (human, UniProt P61073-1 1-352, D97Q). Kind of assay: FACS.
CXCR4 D97Q, sequence (P61073 whole entry D97Q): as the sequence (P61073 whole entry L41A) above, with A41L, D97Q counted along it
The target of assay [22] is CXCR4 E277A (human, UniProt P61073-1 1-352, E277A). Kind of assay: FACS.
CXCR4 E277A (human, UniProt P61073-1 1-352, E277A), sequence (P61073 whole entry E277A): as the sequence (P61073 whole entry L41A) above, with A41L, E277A counted along it
Another assay has as its target CXCR4 D97N (human, UniProt P61073-1 1-352, D97N). Kind of assay: FACS.

CXCR4 D187E (human, UniProt P61073-1 1-352, D187E), sequence (P61073 whole entry D187E): as the sequence (P61073 whole entry L41A) above, with A41L, D187E counted along it
CXCR4 D97E + V112A (human, UniProt P61073-1 1-352, D97E | V112A), sequence (P61073 whole entry D97E/V112A): as the sequence (P61073 whole entry L41A) above, with A41L, D97E, V112A counted along it
CXCR4 E288D, sequence (P61073 whole entry E288D): as the sequence (P61073 whole entry L41A) above, with A41L, E288D counted along it
CXCR4 D97E (human, UniProt P61073-1 1-352, D97E), sequence (P61073 whole entry D97E): as the sequence (P61073 whole entry L41A) above, with A41L, D97E counted along it

Take “LVRYTKKVPQVSTPTL [EPI-X4, 16-mer fragment of albumin, endogenous antagonist and inverse agonist of CXCR4]”: the Fold change in the assay with CXCR4 D187E [1] was determined as 1.2; in the assay on CXCR4 L41A [2] it was 19; in the assay with CXCR4 E277A [3], 1.3; in the assay with CXCR4 D97E [4] it was 18; in the assay with CXCR4 D97E + V112A [5] it was 2.6; with CXCR4 D262A [6] it was 0.7. Also, the Fold change in the assay with CXCR4 V112A [7] is 1.6; in the assay on CXCR4 D97E + V112L [8], 32; in the assay with CXCR4 D97S [9] it was 112; in the assay with CXCR4 V112A + L41A, 11; in assay [10], 7.

B1: EPI-X4 JM#21 (peptide)
peptide: ILRWSRKLPCVS
notes: source: synthetic peptide (Fmoc solid-phase synthesis, HPLC-purified)
One may read the IC50 as the midpoint of a concentration-inhibition curve. As for B1, the concentration for half-maximal inhibition (IC50) in [11] was 145 nM; with CXCR4 L41A [12], 720 nM; in assay [13] it was 400 nM; with CXCR4 D262A [14] it was 230 nM; in assay [15] it was 660 nM; with CXCR4 D187E [16], 310 nM. The IC50 with CXCR4 E288D was determined as 14200 nM; with CXCR4 E288A, 86400 nM; with CXCR4 D97S [17] it was 5390 nM; in the assay with CXCR4 V112A [18], 3450 nM; in the assay with CXCR4 V112L, 410 nM; with CXCR4 D97E + V112L [19], 370 nM. In addition, the IC50 with CXCR4 D97E + V112A [20] turned out to be 470 nM; with CXCR4 D97T, 3830 nM; in the assay with CXCR4 D97E [21], 1910 nM; with CXCR4 D97Q it was 8050 nM; in the assay with CXCR4 E277A [22] it was 280 nM; in the assay with CXCR4 D97N it was 11000 nM.

B2: WSC02 408–414-NH2 (peptide)
peptide: IVRWSKK-NH2
notes: WSC02 truncated by five residues; source: synthetic peptide (Fmoc solid-phase synthesis, HPLC-purified)
As for B2, the half-inhibitory concentration (IC50) in assay [11] was 469 nM.

B3: WSC02 408–416-NH2 (peptide)
peptide: IVRWSKKVP-NH2
notes: WSC02 truncated by three residues; source: synthetic peptide (Fmoc solid-phase synthesis, HPLC-purified)
For B3, in [11], the IC50 amounted to 312 nM.

B4: JM#21 408–416-NH2 (peptide)
peptide: ILRWSRKLP-NH2
notes: JM#21 truncated by three residues; source: synthetic peptide (Fmoc solid-phase synthesis, HPLC-purified)
In assay [11], B4 displayed an IC50 of 262 nM.

B5: EPI-X4 JM#21 408–414-NH2 (peptide)
peptide: ILRWSRK-NH2
notes: JM#21 truncated by five residues; source: synthetic peptide (Fmoc solid-phase synthesis, HPLC-purified)
Take B5: in assay [11], the IC50 was 157 nM.

B6: EPI-X4 408–414-NH2 (peptide)
peptide: LVRYTKK-NH2
notes: as for B1
Take B6: in assay [11], the half-inhibitory concentration (IC50) worked out at 954 nM.

B7: EPI-X4 408–416-NH2 (peptide)
peptide: LVRYTKKVP-NH2
notes: as for B1
Consider B7, for which, in assay [11], the concentration for half-maximal inhibition (IC50) was 1030 nM.
